Patent publication US20260069689A1 (Regeneron, published 2026)

Experiments:
[1] = target: SARS-CoV-2 RBD.mmh (Spike amino acids Arg319-Phe541 with C-terminal myc-myc-6-Histidine tag) (SARS-CoV-2, UniProt P0DTC2 319-541)
[2] = target: T1, SARS-COV-2 RBD-MMH (SARS-COV-2 RBD extracellular domain with C-terminal myc-myc-hexahistidine tag) (SARS-CoV-2)
[3] = target: T1, SARS-COV-2 RBD-MMH (SARS-COV-2 RBD …); assay: SPR 37C, mAb captured, pH 7.4 vs pH 6.0
SARS-COV-2 RBD-MMH [4] = target: SARS-COV-2 RBD-MMH (SARS-CoV-2); assay: SPR 37C
SARS-COV-2 RBD-MMH [5] = target: SARS-COV-2 RBD-MMH (SARS-CoV-2); assay: SPR 37C, run with dissociation at pH 7.4
SARS-COV-2 RBD-MMH [6] = target: SARS-COV-2 RBD-MMH (SARS-CoV-2); assay: SPR 37C, run with dissociation at pH 5.0

| Binder | IC50 [1] [nM] | koff [2] [s⁻¹] | t½ at pH 6.0 [2] | t½ at pH 7.4 [2] [min] | t½ Ratio of pH 7.4 to pH 6.0 [3] | t½ Ratio of pH 7.4 to pH 5.0 (SARS-COV-2 RBD-MMH [4]) | RBD.mmh Bound at pH 7.4 (RU) (SARS-COV-2 RBD-MMH [5]) | koff (SARS-COV-2 RBD-MMH [5]) [s⁻¹] | RBD.mmh Bound at pH 7.4 (RU) (SARS-COV-2 RBD-MMH [6]) | koff (SARS-COV-2 RBD-MMH [6]) [s⁻¹] | t½ (SARS-COV-2 RBD-MMH [6]) [min] |
| --- | --- | --- | --- | --- | --- | --- | --- | --- | --- | --- | --- |
| mAb15151 (antibody, V domains shown) VH: QVQLVESGGGVVQPGRSLRLSCAASGFVFNSYGMHWVRQAPGKGLEWVAVLWYEGSKNYYADSVKGRFTISRDNSKNTLYLQMNSLRAEDTAVYYCARHGSGSFFGYYLDYWGQGTLVTVSS VL: DIQMTQSPSSLSASVGDRVTITCRASHNINDFLNWYQQKPGKAPRLLIYAASSLQSGVPSRFSGSGSGTDFTLTISSLQPEDFATYYCQESYTTPPTFGQGTKLEIKR | 0.641 | 0.00454 | 2.5 min | 1.7 | 0.7 | – | – | – | – | – | – |
| mAb15170 (antibody, V domains shown) VH: EVQLVESGGGLVQPGGSLRLSCAATGITVSSNYMSWVRQAPGKGLEWVSLIYSGGSTFYADSVKGRFTISRHNSKNTLYLQMSSLRAEDTAVYYCARDLVDFGMDVWGQGTTVTVSS VL: DIQLTQSPSSLSASVGDRVTITCRASQGISNYLAWYQQKPGKAPKLLIYAASTLQSGVPSRFSGSGSGTDFTLTISSLQPEDFGTYYCQQLNSDSPTFGQGTKVEIKR | 0.102 | 8e-05 | 144 min | 108 | 0.7 | – | – | – | – | – | – |
| mAb15159 (antibody, V domains shown) VH: EVQLVESGGGLVQPGGSLRLSCAASGITVSSNYMTWVRQAPGKGLEWVSLIYSGGSTFYADSVRGRFTISRDNSKNTLYLQMNSLRAEDTAVYYCARDLVVYGMDVWGQGTTVTVSS VL: DIQLTQSPSSLSASVGDRVTITCRASQGISSYLAWYQQKPGKAPKLLIYAASTLQSGVPSRFSGSGSGTDFTLTISSLQPEDFATYYCQHLNSDPHTFGQGTKLEIKR | – | – | – | – | – | 1.9 | 31.9 | 0.000231 | 45.5 | 0.000429 | 27 |
| mAb15157 (antibody, V domains shown) VH: EVQLVESGGALVQPGGSLRLSCAASGFPFTIYAMTWVRQAPGKGLEWVSVITGSGDSTYYADSVKGRFTISRDNSKNTLYLQMNSLRAEDTAVYYCVKTGEGFFYYYYGMDVWGQGTTVTVSS VL: QSVLTQPPSVSAAPGQKVTISCSGSSSNIGNSYISWYQQLPGTAPKLLIYVNNKRPSGIPDRFSGSKSGTSATLGITGLQTGDEADYYCGTWDSSLSAGVFGSGTKVTVLG | – | – | – | – | – | 1.7 | 106 | 0.00405 | 108 | 0.00702 | 1.6 |
| mAb15161 (antibody, V domains shown) VH: EVQLVESGGGLVQPGGSLRLSCAASGFTFSSYEMNWVRQAPGKGLEWVSYISSSGSILYYADSVKGRFTASRDNAKNSLYLQMNSLRAEDTGVYYCARREYQLLRPFEFWGQGTLVTVSS VL: not shown [mAb15161, listing 1 of 2 here] | 0.584 | 0.00107 | 10.8 min | 10.3 | 0.9 | – | – | – | – | – | – |
| mAb15161 (antibody, V domains shown) VH: EVQLVESGGGLVQPGGSLRLSCAASGFTFSSYEMNWVRQAPGKGLEWVSYISSSGSILYYADSVKGRFTASRDNAKNSLYLQMNSLRAEDTGVYYCARREYQLLRPFEFWGQGTLVTVSS VL: not shown [mAb15161, listing 2 of 2 here] | – | – | – | – | – | 0.9 | 39.8 | 0.00113 | 51.4 | 0.00098 | 11.8 |
| mAb15160 (antibody, V domains shown) VH: EVQLVESGGGLVQPGGSLRLSCSASGFTFSRYAMYWVRQAPGKGLEYVSAISSDGGSTYDADSVKGRFTISRANSKNTLYLQMSSLRAEDTAVYYCVKGLRELLYYYYGMDVWGQGTTVTVSS VL: DIQMTQSPSSLSASVGDRVTITCRAGQSISSFLNWYQQKPGKAPKLLIYAASSLQSGVPSRFSGSGSGTDFTLTISSLQPEDFATYYCQQSYITPFTFGPGTKVDIKR | – | – | – | – | – | 1 | 58.2 | 0.00218 | 61.3 | 0.00228 | 5.1 |
| mAb15156 (antibody, V domains shown) VH: QLQLQESGPGLVKSSETLSLTCTVSASITGSTYYWGWIRQPPGKGLEWIGSIYYSGTTYYKASLKSRVTISVDTSKNQFSLKLTSVTVADTAVYYCVSHLLGNYHKYGMDVWGQGTTVTVSS VL: not shown | – | – | – | – | – | 2.3 | 92.6 | 0.00673 | 104 | 0.0158 | 0.7 |
| mAb15150 (antibody, V domains shown) VH: EVQLVETGGGLIQPGGSLRLSCAAPGFIVSSNYMSWVRQAPGKGLEWVSLLYPGGSTYYADSVKGRFTISRDNSKNTLYLQMNSLRADDTAVYYCARVLPIVEDHFDYWGQGTLVTVSS VL: DIQLTQSPSFLSASVGDRVTITCRASQGMSSYLAWYQKKPGKAPKLLIYGATILQSGVPSRFSGSGSGTEFTLTISSLQPEDFATYYCQQLNSDPLYMYTFGQGTKLEIKR | 0.254 | 3.81e-05 | 5.06 h | 103 | 0.3 | – | – | – | – | – | – |
| mAb15158 (antibody, V domains shown) VH: EVQLVESGGGLVQPGGSLRLSCAASGFSFSSNWMSWVRQAPGKGLEWVGNINQDGSEKYYVDSVEGRFTISRDNAKKSLYLQMNSLRAEDTAVYYCARDLGVLWFGDFVDWGQGALVTVSS VL: DIQMTQSPSSLSASVGDRVTITCRASQAISNSLAWYQQKPGKAPKLLLYAASTLESGVPSRFSGSGSGTDYTLTISSLQPEDFATYYCLQYYGSPRTFGQGTKVEIKR | – | – | – | – | – | 0.3 | 111 | 0.00031 | 122 | 9.7e-05 | 119 |
| mAb15163 (antibody, V domains shown) VH: EVQLVETGGGLIQPGESLRLSCAASGFIVSTNYMNWVRQAPGKGLEWVSVIYRGGSTYYADSVKGRFTISRDNSKNTLFLQMNSLRAEDTAVYYCARGHEDFDYDTPASGAFDIWGQGTMVTVSS VL: QSALTQPPSASGSPGQSVTISCTGTSSDVGGHNYVSWYQQHPGKAPKVMIYEVSKRPSGVPDRFSGSKSGNTASLTVSGLQAEDEADYYCSSYAGSNKFVFGTGTKVTVLG | 0.217 | 0.00104 | 11.1 min | 23.4 | 2.1 | – | – | – | – | – | – |
| mAb15162 (antibody, V domains shown) VH: EVQLVETGGGLIQPGGSLRLSCAASEFIVSRNYMSWVRQAPGKGLEWVSLIYSGGSTYYADSVKGRFTISRDNSKNILYLQMNSLRAEDTAVYYCARDRGGISDYWGQGTLVTVSS VL: DIQMTQSPSSLSASVGDRVTITCQASQDINKYLNWFQQKPGKAPKLLIYDASNLETGVPSRFSGSGSGTDFTFTISSLQPEDIATYYCQQYDNLPRTFGQGTKLEIKR | 0.756 | 0.00354 | 3.3 min | 3.9 | 1.2 | – | – | – | – | – | – |
| mAb15164 (antibody, V domains shown) VH: EVQLVESGGGLVQPGGSLRLSCAASGFAVSSNYMTWVRQAPGKGLEWVATIYSGDSTYYADSVKGRFTISRHNSKNTLSLQMNSLRADDTAIYYCARLSGVLSGTYNGAFDIWGQGTMVTVSS VL: QSALTQPASVSGSPGQSITISCTGTSSDFGNYNIVSWYQQHPGQAPKVMIYEGNKRPSGVSNRFSGSKSGHTASLTISGLQAEDEADYYCSSYAGSSTWVFGGGTKLTVLG | 0.245 | 0.0021 | 5.5 min | 5.1 | 0.9 | – | – | – | – | – | – |
| mAb15166 (antibody, V domains shown) VH: EVQLVESGGGLVQPGGSLRLSCAASGFTVTSNYMSWVRQAPGKGLEWVSAIYSGESTYYADSVKGRFTISRDSSKNTLYLQMNSLRVEDTAVYYCASIHDYSNYVGGFDPWGQGTLVTVSS VL: QSALTQPASVSGSPGQSITISCTGPSSDFGSYNLVSWYQQHPGKAPKLMIYEGTKRPSGVSNRFSGSKSGNTASLTISGLQAEDEADYYCSSYAGSSTWVFGGGTKLTVLG | 0.475 | 0.0301 | 0.4 min | 0.4 | 1 | – | – | – | – | – | – |
| mAb15165 (antibody, V domains shown) VH: EVQLVESGGGLVQPGGSLRLSCAASGFTVSSNYMSWVRQAPGKGLEWVSAIYSGDSTYYADSVKGRFTISKDNSKNTLYLQMNSLRGEDTAVYYCARLGGALQAYDGAFDYWGQGTLATVSS VL: QSALTQPASVSGSPGQSITISCTGTSSDFGSYNLVSWYQQHPGKAPKLMIYEGNKRPSGVSIRFSGSKSGNTASLTISGLQAEDEADYYCSSYAGSSTWVFGGGTKLTVLG | 0.189 | 0.00128 | 9.1 min | 7.1 | 0.8 | – | – | – | – | – | – |
